The supplement of paper PMC5998384

Assays:
HeLa Kyoto [1] = experiment: solubility in G1/S (NP-40 vs SDS abundance) (log2 ratio); higher = more soluble; details: cell cycle stage: G1/S
HeLa Kyoto [2] = experiment: melting temperature (median over replicates), in situ; higher = more thermally stable
HeLa Kyoto [3] = experiment: solubility change mitosis vs G1/S (difference of NP-40 vs SDS log2 ratios) (log2 ratio difference); higher = more soluble in mitosis
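For melting temperature (median over replicates), in situ in this document: HeLa Kyoto cells synchronized by double thymidine or nocodazole block, proteins quantified by TMT10plex mass spectrometry, three independent biological replicates.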
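For solubility change mitosis vs G1/S (difference of NP-40 vs SDS log2 ratios) in this document: synchronized HeLa Kyoto cells (double thymidine block for G1/S, nocodazole release for mitosis), protein amounts in NP-40 versus SDS lysates quantified by mass spectrometry, three biological replicates.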
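For solubility in G1/S (NP-40 vs SDS abundance) in this document: HeLa Kyoto cells arrested at G1/S by double thymidine block, proteins quantified by TMT10plex mass spectrometry in mild NP-40 versus SDS extracts, three biological replicates.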

MADYWKSQPKKFCDYCKCWIADNRPSVEFHERGKNHKENVAKRISEIKQKSLDKAKEEEKASKEFAAMEAAALKAYQEDLKRLGLESEILEPSITPVTSTIPPTSTSNQQKEKKEKKKRKKDPSKGRWVEGITSEGYHYYYDLISGASQWEKPEGFQGDLKKTAVKTVWVEGLSEDGFTYYYNTETGESRWEKPDDFIPHTSDLPSSKVNENSLGTLDESKSSDSHSDSDGEQEAEEGGVSTETEKPKIKFKEKNKNSDGGSDPETQKEKSIQKQNSLGSNEEKSKTLKKSNPYGEWQEIKQEVESHEEVDLELPSTENEYVSTSEADGGGEPKVVFKEKTVTSLGVMADGVAPVFKKRRTENGKSRNLRQRGDDQ [WBP4]
solubility in G1/S (log2) (HeLa Kyoto [1]): -0.703
melting temperature (HeLa Kyoto [2]; cell cycle stage: mitosis): 54.7 °C
solubility change mitosis (log2) (HeLa Kyoto [3]): 0.763

MAEAGTGEPSPSVEGEHGTEYDTLPSDTVSLSDSDSDLSLPGGAEVEALSPMGLPGEEDSGPDEPPSPPSGLLPATVQPFHLRGMSSTFSQRSRDIFDCLEGAARRAPSSVAHTSMSDNGGFKRPLAPSGRSPVEGLGRAHRSPASPRVPPVPDYVAHPERWTKYSLEDVTEVSEQSNQATALAFLGSQSLAAPTDCVSSFNQDPSSCGEGRVIFTKPVRGVEARHERKRVLGKVGEPGRGGLGNPATDRGEGPVELAHLAGPGSPEAEEWGSHHGGLQEVEALSGSVHSGSVPGLPPVETVGFHGSRKRSRDHFRNKSSSPEDPGAEV [TSSC4]
solubility in G1/S (log2) (HeLa Kyoto [1]): 0.167
melting temperature (HeLa Kyoto [2]; cell cycle stage: G1/S): 51 °C
melting temperature (HeLa Kyoto [2]; cell cycle stage: mitosis): 50.5 °C
solubility change mitosis (log2) (HeLa Kyoto [3]): 0.0166

MAENREPRGAVEAELDPVEYTLRKRLPSRLPRRPNDIYVNMKTDFKAQLARCQKLLDGGARGQNACSEIYIHGLGLAINRAINIALQLQAGSFGSLQVAANTSTVELVDELEPETDTREPLTRIRNNSAIHIRVFRVTPK [POP7]
solubility in G1/S (log2) (HeLa Kyoto [1]): 0.19
melting temperature (HeLa Kyoto [2]; cell cycle stage: mitosis): 54.9 °C
solubility change mitosis (log2) (HeLa Kyoto [3]): -0.0753

MAERGRKRPCGPGEHGQRIEWRKWKQQKKEEKKKWKDLKLMKKLERQRAQEEQAKRLEEEEAAAEKEDRGRPYTLSVALPGSILDNAQSPELRTYLAGQIARACAIFCVDEIVVFDEEGQDAKTVEGEFTGVGKKGQACVQLARILQYLECPQYLRKAFFPKHQDLQFAGLLNPLDSPHHMRQDEESEFREGIVVDRPTRPGHGSFVNCGMKKEVKIDKNLEPGLRVTVRLNQQQHPDCKTYHGKVVSSQDPRTKAGLYWGYTVRLASCLSAVFAEAPFQDGYDLTIGTSERGSDVASAQLPNFRHALVVFGGLQGLEAGADADPNLEVAEPSVLFDLYVNTCPGQGSRTIRTEEAILISLAALQPGLIQAGARHT [C9ORF114]
solubility in G1/S (log2) (HeLa Kyoto [1]): -1.68
melting temperature (HeLa Kyoto [2]; cell cycle stage: mitosis): 51.8 °C
solubility change mitosis (log2) (HeLa Kyoto [3]): 0.696

MAEYLASIFGTEKDKVNCSFYFKIGACRHGDRCSRLHNKPTFSQTIALLNIYRNPQNSSQSADGLRCAVSDVEMQEHYDEFFEEVFTEMEEKYGEVEEMNVCDNLGDHLVGNVYVKFRREEDAEKAVIDLNNRWFNGQPIHAELSPVTDFREACCRQYEMGECTRGGFCNFMHLKPISRELRRELYGRRRKKHRSRSRSRERRSRSRDRGRGGGGGGGGGGGGRERDRRRSRDRERSGRF [U2AF1]
solubility in G1/S (log2) (HeLa Kyoto [1]): -0.457
melting temperature (HeLa Kyoto [2]; cell cycle stage: G1/S): 46.8 °C
melting temperature (HeLa Kyoto [2]; cell cycle stage: mitosis): 48.2 °C
solubility change mitosis (log2) (HeLa Kyoto [3]): 0.342

MAFWCQRDSYAREFTTTVVSCCPAELQTEGSNGKKEVLSGFQVVLEDTVLFPEGGGQPDDRGTINDISVLRVTRRGEQADHFTQTPLDPGSQVLVRVDWERRFDHMQQHSGQHLITAVADHLFKLKTTSWELGRFRSAIELDTPSMTAEQVAAIEQSVNEKIRDRLPVNVRELSLDDPEVEQVSGRGLPDDHAGPIRVVNIEGVDSNMCCGTHVSNLSDLQVIKILGTEKGKKNRTNLIFLSGNRVLKWMERSHGTEKALTALLKCGAEDHVEAVKKLQNSTKILQKNNLNLLRDLAVHIAHSLRNSPDWGGVVILHRKEGDSEFMNIIANEIGSEETLLFLTVGDEKGGGLFLLAGPPASVETLGPRVAEVLEGKGAGKKGRFQGKATKMSRRMEAQALLQDYISTQSAKE [AARSD1]
solubility in G1/S (log2) (HeLa Kyoto [1]): 0.18
melting temperature (HeLa Kyoto [2]; cell cycle stage: G1/S): 49.8 °C
melting temperature (HeLa Kyoto [2]; cell cycle stage: mitosis): 49.9 °C
solubility change mitosis (log2) (HeLa Kyoto [3]): -0.0164
